From US20250108137A1, “APTAMERS SPECIFIC TO EBV-ASSOCIATED MALIGNANCIES AND THEIR APPLICATIONS IN CANCER IMAGING AND THERAPIES” (priority 2022, published 2025)

T1: MTDH (Homo sapiens, UniProt Q86UE4)
T1 construct: endogenous in cells; host or cells: EBV-positive NPC43 cells
T1 sequence (Q86UE4 1-582): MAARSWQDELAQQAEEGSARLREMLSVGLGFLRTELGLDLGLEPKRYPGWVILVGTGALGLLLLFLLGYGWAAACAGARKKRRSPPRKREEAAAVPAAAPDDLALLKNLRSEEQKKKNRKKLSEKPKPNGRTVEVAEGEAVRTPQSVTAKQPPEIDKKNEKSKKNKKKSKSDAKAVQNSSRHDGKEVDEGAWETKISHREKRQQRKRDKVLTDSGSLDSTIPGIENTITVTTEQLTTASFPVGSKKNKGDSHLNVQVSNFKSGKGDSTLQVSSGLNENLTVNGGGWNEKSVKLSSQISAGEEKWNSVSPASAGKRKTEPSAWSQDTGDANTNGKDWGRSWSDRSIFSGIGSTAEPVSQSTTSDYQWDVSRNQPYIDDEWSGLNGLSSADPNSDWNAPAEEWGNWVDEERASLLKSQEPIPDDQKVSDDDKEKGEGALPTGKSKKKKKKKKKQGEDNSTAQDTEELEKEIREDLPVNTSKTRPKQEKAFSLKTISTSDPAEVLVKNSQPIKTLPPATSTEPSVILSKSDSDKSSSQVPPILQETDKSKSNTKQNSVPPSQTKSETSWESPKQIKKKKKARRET


What was measured:
[1] = compared with random aptamer sequences
[2] = system: EBV-positive NPC cell lines (NPC43, C666-1 and C17); test: Binding to a panel of EBV-positive and EBV-negative cell lines; conditions: EBV-positive NPC43, C666-1, C17; EBV-negative A549, NP460
Procedure: (§1) 10 μM aptamers or aptamer pools were dissolved in DBPS with 5 mM MgCl2 as stock and diluted with binding buffer (DBPS with 5 mM MgCl2, 0.1% BSA, […] and 0.45% glucose) into 200 nM, followed by heating at 95° C. to 5 mins and chilling on ice for 5 mins. Cells were trypsinized and incubated in the aptamer solution at 4° C. for 30-60 mins. After incubation, the cells were washed once by precooled binding buffer. At last, the samples were analyzed on BD flowcytometry. For flow cytometric analysis of bead assay, the NTA beads were incubated with CNBP-his or MTDH-his containing cell lysates or control lysates for 1 hr at 4° C. and then washed with binding buffer for 3 times. After that, the beads were incubated with FAM-Apt-2019 or FAM-Apt-1194 (200 nM) for 30 mins at 4° C. At last, the bead-aptamer complexes were washed 3 times with binding buffer and analyzed by BD flow cytometer.
(§2) By binding of Apt-1194 & Apt-1798 with a panel of EBV-positive NPC cell lines (NPC43, C666-1 and C17), EBV-negative lung cancer cell line (A549) and nasopharyngcal cell line (NP460), the specificity of Apt-1194 to EBV-positive cells was confirmed (FIG. 4B). Proteins from NPC43 lysate were pulled down by Apt-1194. […] It has been reported that MTDH is a prognosis marker for NPC (19). […] Knockdown of MTDH could suppress proliferation and migration capability in NPC cells (FIG. 4F)

[3] = Thioflavin T fluorescent enhancement assay for G-quadruplex formation; assay type: physicochemical; conditions: lithium cacodylate buffer or potassium phosphate buffer
Text: Thioflavin T (ThT) is kind of G4 ligand dye, and its fluorescent signal would increase after binding to G4 structures. So, it is widely used in detecting G4 structure. The Apt-2019 was stained by ThT with the existence of Lit or Kt. Circular dichroism (CD) spectra was used for determination of the subtype of G4 structure.
Both Apt-2019 and Apt-1194 are guanine-rich oligonucleotides (GROs) in which the G content are 43 and 41% respectively. GROs can form stable G-quadruplex structures because four guanine bases form a square planar structure called a G-quartet through Hoogsteen base pairing, and these G-quartets spontaneously assemble into four-stranded helical structures termed G-quadruplex (G4) (FIG. 5A) (20). It is well known that G4-forming oligonucleotides are relatively stable against nuclease degradation (21). Therefore, we checked if Apt-2019 and Apt-1194 can form G4 using Thioflavin T (ThT) as a fluorescence light-up probe for G4 formation (22). […] The higher serum stability of Apt-2019 and Apt-1194 than random non-GC rich aptamers (FIG. 5D) can thus be explained by their stable G4 structure. To further characterize these novel NPC-targeting aptamers, we have measured their equilibrium dissociation constant (Kd).

[4] = molecular target: T1, MTDH; test: Pull-down from NPC43 lysate with mass spectrometry and western blot; assay type: binding; conditions: mass spectrometry, validated by Western blot
Procedure: (§3) The pulldown assay was performed by following the protocol from Shang Guan's lab. Then the protein samples were separated in PAGE gels and stained by pierce silver staining kit from Life Technology. The specific bands around 20 kDa or 70 kDa were sent to Biotech Company (Bei Jing) for mass spectrometry analysis.
as §2

[5] = system: EBV-positive C666-1 tumors; test: In vivo fluorescence imaging of biodistribution, C666-1 tumors; design: species or system mice; conditions: fluorescence-tagged, tail vein injected, IVIS Spectrum imager
Text: Fluorescence-tagged Apt-2019 and Apt-1194 were tail vein injected in mice bearing C15 tumors (an NPC xenograft with high expression of LMP1 (18)) and EBV-positive C666-1 tumors respectively. […] Tumors and organs (e.g., lungs and spleen) were taken out for fluorescence imaging (IVIS Spectrum imager).

[6] = system: EBV-positive C666-1; test: Equilibrium dissociation constant on cells, FITC-tagged Apt-1194; assay type: binding; conditions: serial concentrations of FITC-tagged aptamer
Text: (§4) FIGS. 5A-5G. Characterization of Apt-2019 and Apt-1194. (FIG. 5A) Diagram showing the G-quadraplex structure that can be formed by G-rich aptamers. (FIGS. 5B-5C) Fluorescent enhancement assay (FEA) was used to detect G-quadraplex forming sequences. Both Apt-2019 and Apt-1194 could form into G-quadraplex in the presence of K+ or L+ ions and then light up the ThT ligands. […] (FIGS. 5E-5F) A serial concentrations of FITC-tagged Apt-2019 and Apt-1194 were bound with LMP1-overexpressing NPC43 and EBV-positive C666-1 respectively. Equilibrium dissociation constant (Kd) was then calculated. (FIG. 5G) Apt-2019 was allowed to bind with live NPC cells for 45 mins. Internalization of Apt-2019 was validated by Z-stack imaging of confocal microscope.
(§5) 10 μM aptamers or aptamer pools were dissolved in DBPS with 5 mM MgCl2 as stock and diluted with binding buffer (DBPS with 5 mM MgCl2, 0.1% BSA, […] and 0.45% glucose) into 200 nM, followed by heating at 95° C. to 5 mins and chilling on ice for 5 mins. Cells were trypsinized and incubated in the aptamer solution at 4° C. for 30-60 mins. After incubation, the cells were washed once by precooled binding buffer. At last, the samples were analyzed on BD flowcytometry. […] At last, the bead-aptamer complexes were washed 3 times with binding buffer and analyzed by BD flow cytometer.

[7] = system: CNBP-knockout cells; test: Aptamer binding to CNBP-knockout vs parental NPC cells
Procedure: as §1
(§6) To identify the target surface protein which was bound by the Apt-2019 on LMP1-expressing cells, we have performed pull-down assay using Apt-2019. […] The proteins from this band were purified from the gel and subjected for protein identification by tandem mass spectrometry (MS/MS). […] To validate CNBP as the target of Apt-2019, the pull-down proteins from Apt-2019 and Apt-library in LMP1-cell lysates were blotted by the antibody against CNBP (FIG. 2A). […]

[8] = molecular target: T2, CNBP (Homo sapiens, UniProt P62633); test: Flow analysis of CNBP-tagged and non-tagged beads with Apt-2019-FAM; assay type: binding; conditions: Apt-2019-FAM 200 nM; CNBP-tagged vs non-tagged beads
T2 construct: endogenous in cells; host or cells: LMP1-expressing NPC43(noEBV) cell lysate
Procedure: as §1, §6

[9] = system: LMP1-expressing NPC43 cells; test: Internalization by Z-stack confocal microscopy; assay type: cell-based; conditions: live cells, 45 mins
Text: as §4
In live cell imaging, the NPC43-LMP1+ and NPC43-LMP1− cells were seeded in 3.5 cm confocal dishes 24 hrs before. The cells were washed with PBS 2 times and then incubated with 200 nM aptamers in binding buffer for 30 mins and washed with DPBS twice after. The Zeiss LSM880 was used for taking confocal images. In immunofluorescence and aptamer co-staining, the cells were fixed by 4% PFA for 15 mins and then blocked with 3% BSA for 1 hr. CNBP antibody was incubated with the cells in 1:100 dilution (Abclonal, 15110) for 1 hr followed with anti-Rabbit Alex-555 antibody (1:500) for 1 h. After washing for 3 times, FAM-Apt-2019 was added and incubated for 1 h.

[10] = system: LMP1-overexpressing NPC43; test: Equilibrium dissociation constant on cells, FITC-tagged Apt-2019; assay type: binding; conditions: serial concentrations of FITC-tagged aptamer
Text: as §4, §5

[11] = molecular target: T2, CNBP; test: Pull-down assay with mass spectrometry and western blot (LMP1-cell lysates); assay type: binding; conditions: band around 20 kd vs Apt-library; MS/MS; blotted with CNBP antibody
Procedure: as §3
To identify the target surface protein which was bound by the Apt-2019 on LMP1-expressing cells, we have performed pull-down assay using Apt-2019. […] The proteins from this band were purified from the gel and subjected for protein identification by tandem mass spectrometry (MS/MS). […] To validate CNBP as the target of Apt-2019, the pull-down proteins from Apt-2019 and Apt-library in LMP1-cell lysates were blotted by the antibody against CNBP (FIG. 2A). The docking model between the Apt-2019 and CNBP was also predicted by HDOCK (sec worldwide website: hdock.phys.hust.edu.cn/) (FIG. 2A). Another validation assay was done by flow analysis of CNBP-tagged and non-tagged beads after binding with Apt-2019-FAM (FIG. 2B). […] Moreover, Apt-2019-bounded CNBP was specifically expressed on the cell surface, as both the fluorescent signals of CNBP and Apt-2019 were localized on the ‘non-permeabilized’ NPC43-LMP1 cells. (FIG. 3A). […] All these confirmed Apt-2019 could bind to the cell surface CNBP on NPC cells. […]

[12] = system: LMP1-transfected cell lines including HONE1, C17 and NP460; test: Binding to other LMP1-transfected cell lines vs vector control; conditions: compared to the vector control cells
Procedure: as §1
(§7) Identification of Apt-2019 which preferentially binds to LMP1-expressing cells. […] Flow cytometric analyses have shown the gradual increase of fluorescence signals on NPC43^noEBV-LMP1 cells bound with the FAM-tagged aptamers enriched from round 9, 11 and 12 Cell-SELEX (FIG. 1A), indicating a successful enrichment process. […] 8 sequences were selected out based on the sequence similarity and abundance of sequence reads. […]

[13] = system: C15 tumors (an NPC xenograft with high expression of LMP1); test: In vivo fluorescence imaging of biodistribution, C15 xenograft; design: species or system mice; conditions: fluorescence-tagged, tail vein injected, IVIS Spectrum imager
Text: Fluorescence-tagged Apt-2019 and Apt-1194 were tail vein injected in mice bearing C15 tumors (an NPC xenograft with high expression of LMP1 (18)) and EBV-positive C666-1 tumors respectively. We have also generated control aptamers to Apt-2019 and Apt-1194 by replacing all the G to C, so as to destroy the G4-forming ability. The resulting control aptamers are named as Apt-NG^2019 (SEQ ID NO: 4; Apt-NG^2019 (14-63) Aptamer: […]) and Apt-NG^1194 (SEQ ID NO:5; Apt-NG^1194 (1-58) Aptamer: […] GGCC). Tumors and organs (e.g., lungs and spleen) were taken out for fluorescence imaging (IVIS Spectrum imager).

[14] = system: NPC43^noEBV-LMP1 cells; test: Flow cytometry and confocal binding to LMP1-expressing cells vs vector control; conditions: among 8 selected aptamers; flow cytometric analysis and confocal microscopy; FAM-tagged
Procedure: as §1, with “cytometer. […]” for “cytometer.”
as §7

T2 sequence (P62633 whole entry): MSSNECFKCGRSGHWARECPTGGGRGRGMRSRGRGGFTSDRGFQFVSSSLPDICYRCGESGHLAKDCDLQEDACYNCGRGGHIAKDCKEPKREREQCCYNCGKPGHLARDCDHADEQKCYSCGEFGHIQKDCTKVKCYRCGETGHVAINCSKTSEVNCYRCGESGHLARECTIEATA

| Molecule | serum stability [1] | specific binding to EBV-positive vs EBV-negative cell lines [2] | G-quadruplex (G4) formation, ThT light-up [3] | target identified by pull-down [4] | accumulation in the tumors [5] | equilibrium dissociation constant (Kd) [6] | binding after CRISPR-knockout of CNBP [7] | binding to CNBP-tagged beads [8] | internalization into cells [9] | equilibrium dissociation constant (Kd) [10] | target identified by pull-down [11] | specific binding ability in LMP1-transfected cell lines [12] | accumulation in the tumors [13] | preferential binding to LMP1-expressing cells [14] |
| --- | --- | --- | --- | --- | --- | --- | --- | --- | --- | --- | --- | --- | --- | --- |
| Apt-1194: DNA aptamer, SEQ ID NO: 2, from Cell-SELEX and in vivo-SELEX on EBV-positive NPC43; binds MTDH (nucleic acid, DNA, backbone and methylation of C not given here; further chemistry not fully specified) DNA: ATCCAGAGTGACGCAGCACCGAGCGAGTTGGTTTGCTGCGGTGGGCAGAGAGGTGGGGTGGACACGGTGGCTTAGT | much higher serum stability than random aptamer sequences | could bind specifically to EBV-positive cell lines but not to EBV-negative cell lines | could fold into G4 | MTDH was found to be the target | accumulation | nanomolar range | – | – | – | – | – | – | – | – |
| Apt-2019: DNA aptamer, SEQ ID NO: 1, from Cell-SELEX on LMP1-expressing NPC43 cells; binds CNBP (nucleic acid, DNA, backbone and methylation of C not given here; further chemistry not fully specified) DNA: ATCCAGAGTGACGCAGCAGAATGGGTGGGATTCCTCAGAGGGGTTGGTGAGTTTGTGATGGACACGGTGGCTTAGT | much higher serum stability than random aptamer sequences | – | could fold into G4 | – | – | – | inhibited the binding | could specifically bind to the CNBP-tagged beads | could be internalized | nanomolar range | CNBP was found to be the potential target | could preferentially bind to all these LMP1-overexpressing cells | accumulation | highest preferential binding to LMP1-expressing cells |
| Apt-1798: DNA aptamer, SEQ ID NO: 3, top enriched sequence targeting EBV-positive cells (nucleic acid, DNA, backbone and methylation of C not given here) DNA: ATCCAGAGTGACGCAGCAATCGTGGACCTGGCTGTGGTTTGCTGAGGTGGGCGCCAATTGGACACGGTGGCTTAGT | – | could bind specifically to EBV-positive cell lines but not to EBV-negative cell lines | – | – | – | – | – | – | – | – | – | – | – | – |
